Assay results taken from patent US20230295310A1 (ABCELLERA BIOLOGICS, published 2023).
Positions count from the first letter of the chain named.

What was measured:
[1] = target: T1, human CD3 expressed on cells (human, UniProt P07766 23-207; P04234 22-171; P09693 23-182); assay: flow cytometry, 25 nM
T1 construct: whole, on cells; CD3 complex on Jurkat cells and on human primary T cells
Procedure: (§1) Purified antibodies were confirmed to bind CD3 expressed on cells using the CytoFLEX S or LX flow cytometers (Beckman Coulter). Antibodies were diluted to 25 nM in FACS buffer (PBS+2% FBS) and were incubated with CD3-expressing cells for 30 minutes at 4° C. […] The median fluorescence intensity of the binding signal for each antibody was normalized to the isotype control to obtain a fold over isotype value. An antibody with a fold over isotype (FOI) of ≥10 was considered to be positive for binding.

[2] = target: T2, cynomolgus monkey CD3 expressed on primary T cells (cynomolgus monkey, UniProt Q95LI5 22-198; Q95LI8 22-171; Q95LI7 23-181); assay: flow cytometry, 25 nM, cyno primary T cells
T2 construct: whole, on cells; CD3 complex on purified cynomolgus monkey T cells; also called cyno CD3
Procedure: as §1

T2 sequence (Q95LI5 22-198, chain 1 of 3): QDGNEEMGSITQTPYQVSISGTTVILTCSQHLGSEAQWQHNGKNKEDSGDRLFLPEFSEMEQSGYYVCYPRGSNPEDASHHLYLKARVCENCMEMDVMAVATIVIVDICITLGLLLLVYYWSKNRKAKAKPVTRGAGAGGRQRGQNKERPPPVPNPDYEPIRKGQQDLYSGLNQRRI
T2 sequence (Q95LI8 22-171, chain 2 of 3): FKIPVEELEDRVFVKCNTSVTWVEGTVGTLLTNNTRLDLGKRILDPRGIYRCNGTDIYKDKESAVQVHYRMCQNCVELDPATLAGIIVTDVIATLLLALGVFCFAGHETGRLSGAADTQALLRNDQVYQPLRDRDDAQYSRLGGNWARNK
T2 sequence (Q95LI7 23-181, chain 3 of 3): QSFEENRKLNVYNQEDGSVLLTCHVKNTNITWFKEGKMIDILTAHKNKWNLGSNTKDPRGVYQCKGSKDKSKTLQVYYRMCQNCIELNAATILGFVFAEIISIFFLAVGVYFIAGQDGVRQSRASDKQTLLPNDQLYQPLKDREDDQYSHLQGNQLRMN
T1 sequence (P07766 23-207, chain 1 of 3): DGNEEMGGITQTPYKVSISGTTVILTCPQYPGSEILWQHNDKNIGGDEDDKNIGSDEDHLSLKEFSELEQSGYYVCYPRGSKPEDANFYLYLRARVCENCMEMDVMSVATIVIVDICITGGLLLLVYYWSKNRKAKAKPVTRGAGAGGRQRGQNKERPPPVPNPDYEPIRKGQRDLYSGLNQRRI
T1 sequence (P04234 22-171, chain 2 of 3): as the sequence (Q95LI8 22-171, chain 2 of 3) above, with V5I, K15N, V20I, T32S, N33D, N34I, A64T, N74S, L83V, R141H counted along it
T1 sequence (P09693 23-182, chain 3 of 3): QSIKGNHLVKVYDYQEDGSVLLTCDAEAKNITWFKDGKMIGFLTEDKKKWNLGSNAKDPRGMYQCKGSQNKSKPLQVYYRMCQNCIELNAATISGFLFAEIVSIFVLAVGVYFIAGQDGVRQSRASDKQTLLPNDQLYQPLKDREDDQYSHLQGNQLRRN

B1: mAb 85 (antibody, V domains shown)
VH: QVQLVQSGAEVKKPGASVKVSCKASGYTVTGYYMHWVRQAPGQGLEWMGWINPNSGGTNFAQNFQGRVTMTRDTSISTFYMDLNRLRSDDTAVYYCARGGAPVSYWFFDLWGRGTLVTVSS
VL: DIQMTQSPSSLSASVGDRVTITCRASQSISRYLNWYQQKPGKAPKVLIYNTSSLKSGVPSRFSGSGSGTDFTLTISSLQPEDFGTFYCQQSHSTPFTFGPGTKVDIK
Human primary T Cell Binding (FOI) [1]: 195 FOI | Jurkat Cell Binding (FOI) [1]: 181 FOI | binding result [2]: no binding (tested: FOI >=10 = positive)

B2: mAb 79 (antibody, V domains shown)
VH: B1 VH with T28I, Q43H, R87T
VL: B1 VL with S28N, S30N, R31S, Q37H, S53T, D70Y, G84A
Human primary T Cell Binding (FOI) [1]: 199 FOI | Jurkat Cell Binding (FOI) [1]: 171 FOI | binding result [2]: no binding (tested: FOI >=10 = positive)

B3: mAb 66 (antibody, V domains shown)
VH: B1 VH with N84S
VL: B1 VL with G84A, F86L
Human primary T Cell Binding (FOI) [1]: 192 FOI | Jurkat Cell Binding (FOI) [1]: 172 FOI | binding result [2]: no binding (tested: FOI >=10 = positive)

B4: mAb 72 (antibody, V domains shown)
VH: EVQLVDSGGGLVQPGGSLRLSCAASGFTFSSYWMSWVRQAPGKGLEWVANIKQDGSEKYYVDSVKGRFTISRDNVKNSLSLEMNSLRAEDTALYYCARDESSSWYWYFDLWGRGTLVTVSS
VL: DIQMTQSPSTLSASVGDRVTITCRASQSISKWLAWYQQKPGKAPKLLIYKASSLENGVPSRFSGSGSGTEFTLTISSLQPDDFATYYCQQYSSYSRTFGQGTKVEIK
Human primary T Cell Binding (FOI) [1]: 91.4 FOI | Jurkat Cell Binding (FOI) [1]: 98.7 FOI | binding result [2]: no binding (tested: FOI >=10 = positive)

B5: mAb 102 (antibody, V domains shown)
VH: QVQLVESGGGVVQPGRSLRLSCAASGFSFRSYGMHWVRQAPGKGLEWVSVISYDGGNKYYADSVKGRFTISRDNSKNTLFLQMKSLRAEDTALYYCAKGGGTYWRGLFEYWGQGTLVTVSS
VL: DIQLTQSPSFLSASVGDRVTITCRASQGISSYLAWYQKKPGKAPKLLIYAASTLHSGVPSRFSGGGSGTAFTLTISSLQPEDFATYYCQQLNNYPFTFGPGTKVDIK
Human primary T Cell Binding (FOI) [1]: 98.9 FOI | Jurkat Cell Binding (FOI) [1]: 101 FOI | binding result [2]: no binding (tested: FOI >=10 = positive)

B6: mAb 67 (antibody, V domains shown)
VH: EVQLVESGGDLVQPGRSLRLSCAASGFTFDDCVIHWVRQAPGKGLEWVSGITWNSGRIGYADSVKGRFTISRDNAKNSLYLQMNSLRVEDTALYYCAKEGNYDFWSTYYRGYFDLWGRGTLVTVSS
VL: DIQMTQSPSSLSASVGDRVTITCRASQGIRNDLGWYQQKPGIAPKRLIYAASSLQGGVPLRFSGSGSGTEFTLTISSLQPEDFATYYCLQHNSYPYTFGQGTKLEIK
Human primary T Cell Binding (FOI) [1]: 72.4 FOI | Jurkat Cell Binding (FOI) [1]: 70.2 FOI | binding result [2]: no binding (tested: FOI >=10 = positive)

B7: mAb 74 (antibody, V domains shown)
VH: EVQLVESGGGLVQPGRSLRLSCAASGFTFADYVMHWVRQAPGKGLEWVSGINWNNARIGYVGSVKGRFTISRDNAKNSLYLQMTSLRVEDTALYHCVREGNFDFWSAYYRGFLDLWGRGTLVTVSS
VL: B6 VL with N31S, I42K, A50G, L60S
Human primary T Cell Binding (FOI) [1]: 146 FOI | Jurkat Cell Binding (FOI) [1]: 151 FOI | binding result [2]: no binding (tested: FOI >=10 = positive)

B8: mAb 73 (antibody, V domains shown)
VH: EVELVESGGGLVQPGRSLRLSCAASGFTFDDKVMHWVRQAPGKGLEWVSCINWNSGHIGYADSVKGRFTISRDNARTSLYLQMNSLRPEDTALYYCVREGNYDFWSGYYRGFFDLWGRGTLVTVSS
VL: B6 VL with I42K, L60S, N92T, Y96F
Human primary T Cell Binding (FOI) [1]: 74.5 FOI | Jurkat Cell Binding (FOI) [1]: 109 FOI | binding result [2]: no binding (tested: FOI >=10 = positive)

B9: mAb 71 (antibody, V domains shown)
VH: QVQLVQSGAEVRKPGASVKVSCKASGYTFTKYDVNWVRQAPGQGLEWMGWMNSNNGNIGYAQKFQGRVTMTRKTSISTAYMELSSLRSEDTAVYYCAREGHYDFWRGFYNFDYWGQGTLVTVSS
VL: B6 VL with G28D, R30K, I42K, G56S, L60S, S93F, Y96I, K103R
Human primary T Cell Binding (FOI) [1]: 108 FOI | Jurkat Cell Binding (FOI) [1]: 100 FOI | binding result [2]: no binding (tested: FOI >=10 = positive)

B10: mAb 106 (antibody, V domains shown)
VH: QVQLVESGGGVVQPGRSLRLSCAASGFTFRSYGMHWVRQAPGKGLEWVAIIWYNGNKKDYVDSVKGRFTISRDNSKNTLYLQMNSLRAEDTALYYCARGPGYNWFDPWGQGTLVTVSS
VL: DIQMTQSPPSLSASVGDRVTITCRASQRISSYLNWYQQKPGKAPKLLIYAASSLQSGVPSRFSGSGSGTDFTLTISSLQPEDFATYYCQQSDSFPLTFGGGTKVEII
Human primary T Cell Binding (FOI) [1]: 210 FOI | Jurkat Cell Binding (FOI) [1]: 186 FOI | binding result [2]: no binding (tested: FOI >=10 = positive)

B11: mAb 110 (antibody, V domains shown)
VH: B10 VH with T78M
VL: B10 VL with K39R, S91T
Human primary T Cell Binding (FOI) [1]: 214 FOI | Jurkat Cell Binding (FOI) [1]: 197 FOI | binding result [2]: no binding (tested: FOI >=10 = positive)

B12: mAb 81 (antibody, V domains shown)
VH: QVQLAESGGGVVQPGRSLRLSCAASGFTFSGYGMHWVRQAPGKGLDWVAIIYYDGKNKYYADSVKGRFTISRDNSKNTLYLQMNSLRAEDTAVYYCARGGGYNWFDPWGQGTLVTVSS
VL: DIQMTQSPSSLSASVGDRVTITCRPSQTISNYLNWYQQDPGKAPKLLIYAASSLQSGVPSRFSGSGSGTDFTLTISSLQPEDFATYYCQQSYSTPITFGRGTRLEIK
Human primary T Cell Binding (FOI) [1]: 158 FOI | Jurkat Cell Binding (FOI) [1]: 165 FOI | binding result [2]: no binding (tested: FOI >=10 = positive)

B13: mAb 95 (antibody, V domains shown)
VH: B12 VH with V2A, Q3H, A5V, A23S, D46E, I50L, Y53F, K56R
VL: DIQMTQSPSSLSASVGDRVTITCRASQSINNYLSWYQQKPGKAPKLLIYLASNLQSGVPSRFSGSGSGTDFTLTISSLQPEDFATYYCQLSYRSPFTFGPGTKVDVK
Human primary T Cell Binding (FOI) [1]: 206 FOI | Jurkat Cell Binding (FOI) [1]: 177 FOI | binding result [2]: no binding (tested: FOI >=10 = positive)

B14: mAb 99 (antibody, V domains shown)
VH: B12 VH with V2G, A5V, S30R, Y32F, D46E, R98K
VL: DIQMTQSPSSLSASVGDRVTITCRASQSISTYLNWYQQKPGKAPKLLIYSASSLQSGVPSRFSGSGSGTDFTLTISNLQPEDFAIYYCQRSYSPPFTFGPGTKLDIR
Human primary T Cell Binding (FOI) [1]: 218 FOI | Jurkat Cell Binding (FOI) [1]: 198 FOI | binding result [2]: no binding (tested: FOI >=10 = positive)

B15: mAb 94 (antibody, V domains shown)
VH: B12 VH with Q3H, A5V, A23S, D46E, I50L, Y53F, K56R
VL: B13 VL with N30S, S34N, N53S, S76N, T85S, R93S, K107N
Human primary T Cell Binding (FOI) [1]: 174 FOI | Jurkat Cell Binding (FOI) [1]: 170 FOI | binding result [2]: no binding (tested: FOI >=10 = positive)

B16: mAb 101 (antibody, V domains shown)
VH: B12 VH with V2G, A5V, S30R, Y32F, D46E, T78M, R98K
VL: B14 VL
Human primary T Cell Binding (FOI) [1]: 233 FOI | Jurkat Cell Binding (FOI) [1]: 216 FOI | binding result [2]: no binding (tested: FOI >=10 = positive)

B17: mAb 98 (antibody, V domains shown)
VH: B12 VH with Q3H, A5V, G10D, A23S, D46E, I50L, Y53F, K56R
VL: B13 VL with S34N, N53S, F83L, R93S
Human primary T Cell Binding (FOI) [1]: 174 FOI | Jurkat Cell Binding (FOI) [1]: 181 FOI | binding result [2]: no binding (tested: FOI >=10 = positive)

B18: mAb 93 (antibody, V domains shown)
VH: B12 VH with A5V, S30R, D46E, D54N, K56N
VL: B14 VL with T31N, K39E, S50T, D70A, N77S, Y92S, R107K
Human primary T Cell Binding (FOI) [1]: 198 FOI | Jurkat Cell Binding (FOI) [1]: 175 FOI | binding result [2]: no binding (tested: FOI >=10 = positive)

B19: mAb 83 (antibody, V domains shown)
VH: B12 VH with A5V, D54N, K56N, T115I
VL: B12 VL with T28I, S30I, D39K, I96F
Human primary T Cell Binding (FOI) [1]: 173 FOI | Jurkat Cell Binding (FOI) [1]: 161 FOI | binding result [2]: no binding (tested: FOI >=10 = positive)

B20: mAb 100 (antibody, V domains shown)
VH: B12 VH with A5V, A23V, S30R, D46E, A88V, V93L
VL: B14 VL with S50T, D70V, N77S, K103R, R107K
Human primary T Cell Binding (FOI) [1]: 229 FOI | Jurkat Cell Binding (FOI) [1]: 241 FOI | binding result [2]: no binding (tested: FOI >=10 = positive)

B21: mAb 97 (antibody, V domains shown)
VH: B12 VH with V2G, A5V, S30R, D46E, S85N, A88V
VL: B14 VL with V15I, T31N
Human primary T Cell Binding (FOI) [1]: 211 FOI | Jurkat Cell Binding (FOI) [1]: 192 FOI | binding result [2]: no binding (tested: FOI >=10 = positive)

B22: mAb 86 (antibody, V domains shown)
VH: B12 VH with A23E
VL: B12 VL with N31K, D39K, S93I
Human primary T Cell Binding (FOI) [1]: 189 FOI | Jurkat Cell Binding (FOI) [1]: 175 FOI | binding result [2]: no binding (tested: FOI >=10 = positive)

B23: mAb 96 (antibody, V domains shown)
VH: B12 VH with V2A, Q3H, A5V, A23S, D46E, A49S, I50L, Y53F, K56R
VL: B13 VL with S65N
Human primary T Cell Binding (FOI) [1]: 189 FOI | Jurkat Cell Binding (FOI) [1]: 174 FOI | binding result [2]: no binding (tested: FOI >=10 = positive)
